Measured values from US10434074B2, “Peptide and small molecule agonists of EPHA and uses thereof” (CASE WESTERN RESERVE UNIVERSITY, priority 2004, dated 2019).

What was measured:
[1] = test system: integrin-mediated cell adhesion; test: Integrin-mediated cell adhesion to fibronectin; format: cell-based
[2] = test system: DU-145 cells; test: Wound healing assay; format: cell-based, human; settings: 12 hours
Method: FIGS. 2(A-E) illustrate EphA activation inhibited DU-145 cell migration. (A) Expression of c-Met is elevated in cell lines derived from more malignant prostate cancer. Total cellular proteins were immunoblotted with anti-human c-Met. An anti-tubulin blot was used as a control for protein loading. (B) In a modified Boyden chamber assay, DU-145 cells were placed in the upper chamber and allowed to migrate to the lower chamber containing indicated reagents. After 8 hours, cells were stained with crystal violet and cells remaining in the upper chamber were removed. Top panel: Cells migrated to the undersides of membrane were counted; six high power fields were counted. Results represent means±S.D. Representative fields were shown in the lower panel. (C) Ephrin-A1-Fc inhibits DU-145 cell migration when HGF/SF was uniformly presented in both sides of membranes. The experiment was carried out as described in A. (D) Inhibition of cell scattering by immobilized ephrin-A1 in a SOIL assay (Method). Ephrin-A1-Fc or control Fc was immobilized on 6-well culture dishes. Freshly confluent DU-145 cells on cover slips were transferred to the coated surfaces. Cells were stimulated with HGF/SF to induce migration off the cover slips to immobilized Fc or ephrin-A1-Fc. […] The wound healing was recorded prior to and 12 hours after the addition of Fc, ephrin-A1-Fc (1 μg/ml) and/or HGF/SF (20 ng/ml). […]

[3] = biological target: EphA2 (Homo sapiens, UniProt P29317); test: EphA2 activation and ERK status in DU-145 cells; format: cell-based; design: endogenous in cells; host or cells: DU-145 cells
Sequence of EphA2 (Homo sapiens, UniProt P29317) (P29317 24-976): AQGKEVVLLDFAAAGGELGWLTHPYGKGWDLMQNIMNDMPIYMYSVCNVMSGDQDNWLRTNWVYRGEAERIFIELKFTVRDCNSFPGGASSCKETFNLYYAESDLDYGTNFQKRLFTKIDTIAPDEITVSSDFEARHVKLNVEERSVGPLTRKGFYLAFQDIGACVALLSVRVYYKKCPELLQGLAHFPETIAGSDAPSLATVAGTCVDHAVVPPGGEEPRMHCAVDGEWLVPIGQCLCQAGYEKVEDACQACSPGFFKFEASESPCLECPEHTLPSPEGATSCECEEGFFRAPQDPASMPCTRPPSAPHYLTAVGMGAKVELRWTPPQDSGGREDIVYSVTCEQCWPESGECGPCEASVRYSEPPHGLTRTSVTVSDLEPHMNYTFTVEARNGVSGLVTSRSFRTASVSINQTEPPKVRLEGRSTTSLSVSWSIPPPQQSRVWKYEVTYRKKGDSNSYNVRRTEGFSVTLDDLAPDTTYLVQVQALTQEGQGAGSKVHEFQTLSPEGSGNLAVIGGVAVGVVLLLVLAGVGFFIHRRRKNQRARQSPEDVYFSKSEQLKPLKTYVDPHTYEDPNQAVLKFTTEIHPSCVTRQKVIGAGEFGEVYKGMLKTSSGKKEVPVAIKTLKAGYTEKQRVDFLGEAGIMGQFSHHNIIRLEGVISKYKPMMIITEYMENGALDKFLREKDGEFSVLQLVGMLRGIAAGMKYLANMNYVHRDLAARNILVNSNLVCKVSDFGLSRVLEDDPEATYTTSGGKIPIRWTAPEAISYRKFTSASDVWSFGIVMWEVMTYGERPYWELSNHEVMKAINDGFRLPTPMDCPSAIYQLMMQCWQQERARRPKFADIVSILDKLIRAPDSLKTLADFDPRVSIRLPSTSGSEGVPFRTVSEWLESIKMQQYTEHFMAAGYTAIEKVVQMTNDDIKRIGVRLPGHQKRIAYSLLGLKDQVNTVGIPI
Method: (§1) FIGS. 1(A-D) illustrate (A) EphA2 is the primary EphA kinase expressed on human prostate cancer cells. Cell surface proteins were labeled with membrane impermeable biotin (Method). Top panel: Saturating amount of ephrin-A1-Fc (EA1-Fc) was used to precipitate most EphA kinases. Lower panel: EphA2 was first immunodepleted from cell lysates with an EphA2-specific antibody. Saturating amount of ephrin-A1-Fc was then added to the EphA2-depleted cell lysates to precipitate other members of EphA kinases. The precipitates were subject immunoblot with HRP-labeled avidin. (B) Expression of EphA2, but not other EphA kinases and ephrin-As, is elevated in cell lines derived from more malignant prostate cancer. Total cellular proteins were immunoblotted with the indicated antibodies. (C) Immunofluorescence staining of EphA2. Human prostate cancer cells grown on cover slip were stained with anti-EphA2 antibody. Texas-Red labeled secondary was used to visualize the bound primary antibody. […] To determine the ERK activation status, total cell lysates were analyzed by immunoblot using anti-phospho ERK (p-ERK) antibody. […]
(§2) Cells cultured in 6 well plates at 70-80% confluence were stimulated with 0.5 μg/ml Fc, 1 μg/ml epnrinA1-Fc or 20 ng/ml HGF/SF or their combinations as indicated. […] For quantitative analysis, band densities were measured using KODAK 1D imagine analysis software (Eastman Kodak Company).

[4] = test system: DU-145 cells; test: MatriGel invasion assay; format: cell-based, human; settings: 24 hours
Method: FIG. 3 illustrates EphA activation inhibited DU-145 cell invasion. DU-145 cells were placed in the upper chamber of MatriGel-coated Transwell. Fc, ephrin-A1-Fc, HGF/SF/Fc or HGF/SF/ephrin-A1-Fc, were added in the lower chamber. After 24 hours, cells invading through MatriGel and migrated to the undersides of membrane were counted. Representative results (mean±S.D.) from three independent experiments are shown.
For invasion assay, the upper chamber was coated with 50 μg of growth factor-reduced MatriGel (BD) according to manufacturer's instructions. The same procedure as in migration assay was followed, except that the cells were allowed 24 hours to migrate to the underside of the membranes.

[5] = biological target: T1, EphA2 (Rattus norvegicus, UniProt D3ZBN3); test: EphA2 activation and ERK status in MatLyLu cells; format: cell-based
T1 construct: greatly elevated in MatLu and MatLyLu variants; endogenous in cells; host or cells: MatLyLu (Dunning R-3327 rat prostate cancer subline)
T1 sequence (D3ZBN3 1-977): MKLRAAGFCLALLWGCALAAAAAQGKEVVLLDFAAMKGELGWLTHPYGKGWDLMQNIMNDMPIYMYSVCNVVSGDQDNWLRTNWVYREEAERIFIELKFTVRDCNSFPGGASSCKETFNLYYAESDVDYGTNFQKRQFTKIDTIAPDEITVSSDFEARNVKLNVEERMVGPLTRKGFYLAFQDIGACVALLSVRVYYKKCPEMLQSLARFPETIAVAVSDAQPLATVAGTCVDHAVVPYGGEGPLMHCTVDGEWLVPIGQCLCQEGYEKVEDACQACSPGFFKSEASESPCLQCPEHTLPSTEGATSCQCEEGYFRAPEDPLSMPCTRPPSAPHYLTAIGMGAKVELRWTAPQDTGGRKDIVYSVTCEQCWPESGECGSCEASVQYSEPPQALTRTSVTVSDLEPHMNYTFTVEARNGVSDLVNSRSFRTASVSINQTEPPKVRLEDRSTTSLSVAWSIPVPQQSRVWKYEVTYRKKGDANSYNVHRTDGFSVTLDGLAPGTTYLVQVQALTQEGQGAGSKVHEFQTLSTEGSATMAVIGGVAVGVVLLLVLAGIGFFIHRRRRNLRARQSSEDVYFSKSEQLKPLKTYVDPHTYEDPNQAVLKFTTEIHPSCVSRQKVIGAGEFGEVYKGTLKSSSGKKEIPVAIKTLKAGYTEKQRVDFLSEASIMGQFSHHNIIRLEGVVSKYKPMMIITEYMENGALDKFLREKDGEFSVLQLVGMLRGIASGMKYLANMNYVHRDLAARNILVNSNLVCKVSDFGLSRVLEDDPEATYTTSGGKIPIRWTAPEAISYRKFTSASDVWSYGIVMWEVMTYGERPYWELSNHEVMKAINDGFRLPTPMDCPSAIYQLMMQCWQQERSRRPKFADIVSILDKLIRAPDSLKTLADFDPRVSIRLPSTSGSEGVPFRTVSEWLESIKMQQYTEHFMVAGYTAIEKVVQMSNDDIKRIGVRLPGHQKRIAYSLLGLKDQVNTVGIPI
Method: as §1, §2

[6] = test system: DU-145 cells; test: Modified Boyden chamber cell migration assay; format: cell-based, human
Method: FIGS. 2(A-E) illustrate EphA activation inhibited DU-145 cell migration. (A) Expression of c-Met is elevated in cell lines derived from more malignant prostate cancer. Total cellular proteins were immunoblotted with anti-human c-Met. An anti-tubulin blot was used as a control for protein loading. (B) In a modified Boyden chamber assay, DU-145 cells were placed in the upper chamber and allowed to migrate to the lower chamber containing indicated reagents. After 8 hours, cells were stained with crystal violet and cells remaining in the upper chamber were removed. Top panel: Cells migrated to the undersides of membrane were counted; six high power fields were counted. Results represent means±S.D. Representative fields were shown in the lower panel. (C) Ephrin-A1-Fc inhibits DU-145 cell migration when HGF/SF was uniformly presented in both sides of membranes. The experiment was carried out as described in A. (D) Inhibition of cell scattering by immobilized ephrin-A1 in a SOIL assay (Method). Ephrin-A1-Fc or control Fc was immobilized on 6-well culture dishes. Freshly confluent DU-145 cells on cover slips were transferred to the coated surfaces. Cells were stimulated with HGF/SF to induce migration off the cover slips to immobilized Fc or ephrin-A1-Fc. After 48 hours, cells were fixed and stained with crystal violet. The cells that had migrated to the coated surface were photographed after removing cover slips. (E) DU-145 cells were grown to confluency and a wound was generated by scratching monolayer with a 200 μl pipette tip. The wound healing was recorded prior to and 12 hours after the addition of Fc, ephrin-A1-Fc (1 μg/ml) and/or HGF/SF (20 ng/ml). Representative results from 3 independent experiments are shown.
Modified Boyden chambers of 8 μm pore size (Costar) were used for migration assay. Both sides of the membranes were coated with 10 μg/ml collagen at 4° C. overnight. […] Cells migrated to the underside of the membrane were counted under 200× magnification.

ERK1/2 activity [3]: reduced
EphA2 activation, time course [3]: readily occurred in two minutes
ERK1/2 activity [5]: reduced
EphA2 activation, time course [5]: readily occurred in two minutes
B1: ephrin-A1-Fc: ephrin-A1 dimerized by fusion to the heavy chain of human IgG1 (protein)
chain: DRHTVFWNSSNPKFRNEDYTIHVQLNDYVDIICPHYEDHSVADAAMEQYILYLVEHEEYQLCQPQSKDQVRWQCNRPSAKHGPEKLSEKFQRFTPFTLGKEFKEGHSYYYISKPIHQHEDRCLRLKVTVSGKITHSPQAHDNPQEKRLAADDPEVRVLHSIGHS
modifications: left off: a dimerising Fc or GST
notes: ephrin-A1 dimerized by fusion to the heavy chain of human IgG1
effect of ligand clustering on inhibition of cell adhesion to fibronectin [1]: did not increase the inhibitory effects
wound closing ([2]; vs Fc): slowed down the speed of wound closing
wound closing with HGF/SF ([2]; vs HGF/SF and Fc): the wound closing was also delayed
HGF/SF-induced cell invasion [4]: significantly reduced
basal cell invasion [4]: marginally reduced the basal cell invasion
cell migration with HGF/SF on both sides ([6]; HGF/SF both sides, ligand in lower chamber only): significantly reduced the number of cells migrated
HGF/SF-stimulated cell migration ([6]; HGF/SF in lower chamber): potently inhibited
basal cell migration ([6]; lower chamber, 1 μg/ml, 8 hours, vs Fc): reduced the basal level of cell migration
